The RNAGym collection of RNA variant scans (doi:10.7554/elife.80360)

B1: HDV Ribozyme (parent)
chain: GGCCGGCAUGGUCCCAGCCUCCUCGCUGGCGCCGGCUGGGCAACAUUCCGAGGGGACCGUCCCCUCGGUAAUGGCGAAUGGGACCCA

Variants of: B1
Experiment: self-cleavage, relative activity (ratio to wild type); higher = more cleavage; co-transcriptional

| Variant | self-cleavage |
| --- | --- |
| U27C G40A | 0.657 |
| U12A U23G | 0.0791 |
| C24G A78U | 0 |
| C15G A42U | 0.0504 |
| G34C U69A | 0.0739 |
| C7A G67A | 0.315 |
| C33G A70G | 0.104 |
| C22G G52U | 0.0314 |
| C58A A83U | 0.554 |
| G17A C86A | 0.538 |
| G29A C49U | 0.237 |
| A45U C66A | 0.812 |
| G1U A87U | 0.507 |
| C30U C33A | 0.0268 |
| C48A G73A | 0.755 |
| A56C A71U | 1.11 |
| G38U G76C | 0.228 |
| C26G G53C | 0.73 |
| C3A G55A | 0.705 |
| C24U C41U | 0.616 |
| A42U U60C | 0.554 |
| C19A U47G | 0.0361 |
| C7G C19A | 0.0831 |
| G11U C14U | 0.406 |

| Variant | self-cleavage |
| --- | --- |
| C61G G76U | 1.16 |
| G34A C84A | 0.126 |
| C15U G35A | 0.475 |
| G11C G29U | 0.0225 |
| C4A C85A | 0.346 |
| G68U G81C | 0.223 |
| C30A U72C | 0.142 |
| U27C C33A | 0 |
| U9A C85G | 1.13 |
| U65A A77U | 0.72 |
| G28U C58U | 0.185 |
| G34A A51C | 0.193 |
| G11C A43G | 0.0536 |
| U12G C85A | 0.712 |
| C4A C14U | 0.554 |
| C24G C26A | 0.886 |
| A78G C84G | 0.185 |
| U20A G82A | 0.0739 |
| C7U G81U | 0.187 |
| C58U G73U | 0.343 |
| G39U C57U | 0.831 |
| C63U A83C | 0.502 |
| C18U G80C | 0.102 |
| C49U U69A | 0.95 |

| Variant | self-cleavage |
| --- | --- |
| C44A G82A | 0.153 |
| C64G A70U | 0.978 |
| C63G C86A | 0.95 |
| C41U C48U | 1.02 |
| C19G A51U | 0.0678 |
| C7A C15G | 0.123 |
| C30G A70U | 0.0468 |
| G52C G76A | 0.976 |
| C48U U79A | 0.706 |
| U47C G76A | 0.787 |
| G6U A56G | 0.623 |
| C13U C22A | 0.124 |
| G40U G81C | 0.149 |
| C24A G53A | 0.893 |
| C13G G68C | 0 |
| C33A C75A | 0.122 |
| C19U A42G | 0 |
| U46A U69G | 0.793 |
| U9G C62A | 1.14 |
| U60C U79G | 0.554 |
| A42C C84G | 0 |
| G6U G53C | 0.494 |
| U69G A78G | 0.569 |
| G2A C30A | 0.0152 |

| Variant | self-cleavage |
| --- | --- |
| G34U C44A | 0.0545 |
| C61G C62U | 0.815 |
| C18G G50C | 0 |
| C44A U65G | 0.85 |
| G11U C24U | 0.111 |
| U65A C75A | 0.185 |
| C26U G59A | 1.08 |
| C44G C66G | 0.554 |
| C3A C84U | 0.157 |
| G11U A56G | 0.378 |
| C22G A87G | 0.106 |
| U23C C62A | 0.762 |
| C64U G74C | 0.128 |
| A16U A70C | 0.538 |
| G2U C44A | 0.0583 |
| G2A C63U | 0.162 |
| G29C C85U | 0.108 |
| U12A C75U | 0.0361 |
| G67C C84G | 0.499 |
| U23C C86U | 0.6 |
| G10U C63A | 0.845 |
| U47A C86G | 0.733 |
| G31U A56G | 0.386 |
| U23C G38U | 0.175 |

| Variant | self-cleavage |
| --- | --- |
| G38U A56C | 0.266 |
| U60C A77G | 0.831 |
| A51C U60C | 1.15 |
| G1A G17C | 0.107 |
| C30G C75A | 0.0583 |
| C58G G67A | 1.28 |
| C33A G80A | 0.123 |
| C62U G68U | 0.68 |
| G52C C61G | 0.886 |
| G1U U20C | 0.401 |
| A77C C86U | 0.519 |
| G68A C84U | 0.872 |
| A16G C30A | 0.702 |
| G35A G74U | 0.231 |
| A43C C58A | 0.394 |
| G5C U9A | 0.138 |
| G10U G34U | 0.323 |
| G31C A83C | 0.185 |
| G10C C15U | 0.582 |
| U9G C44G | 0.7 |
| G35A C86A | 0.643 |
| G1U C32G | 0.305 |
| C32A A83C | 0.0665 |
| A42U U79C | 0.0216 |

| Variant | self-cleavage |
| --- | --- |
| U37G G52C | 0.178 |
| C41A G74C | 0.366 |
| U72G C86G | 0.6 |
| G68U C84U | 0.511 |
| C30U G55A | 0.691 |
| C22G A78U | 0.0396 |
| G6U U79G | 0.185 |
| C18U G34C | 0.155 |
| C18U G34U | 0.0455 |
| C18A C64A | 0.136 |
| C21A C85U | 0.157 |
| G38U C63A | 0.159 |
| U20C G34U | 0.086 |
| C15U | 0.965 |
| C21G C41G | 0.095 |
| G35C A45G | 0.237 |
| C4A G38C | 0 |
| G28C U69G | 0.156 |
| U46G U72G | 0.623 |
| G28U A83G | 0.0569 |
| C4U U60A | 0.831 |
| G29U G54C | 0.0282 |
| G29U G54A | 0.189 |
| G17A G76C | 0.665 |

| Variant | self-cleavage |
| --- | --- |
| U46C A83G | 0.402 |
| C24U G50A | 0.726 |
| A43G G73C | 0.256 |
| C3G G68C | 0.531 |
| G35U C66A | 0.332 |
| C4U A77C | 0.0978 |
| C7U C44U | 0.374 |
| C41A C86U | 0.904 |
| U37A A42U | 0.131 |
| G28A C44G | 0 |
| C4A U27G | 0.225 |
| G5U G74C | 0.0475 |
| C33A U46G | 0.0615 |
| C32G C58G | 0.0773 |
| U9G A71U | 1.13 |
| C19G G74A | 0.161 |
| C75A G82U | 0.101 |
| A16C G17A | 0.519 |
| A42G U47A | 0.391 |
| C18U C36U | 0.198 |
| C19G U23C | 0 |
| C3A G28A | 0.0138 |
| A56U G73U | 0.415 |
